Laboratory results reported in patent publication US20230095569A1 (ANTENGENE BIOLOGICS, published 2023).

Key:
[1] = molecular target: T1, human Claudin18.2 (CLDN18.2) (human, UniProt P56856 1-261); experiment: FACS on CHOK1-18.2 cells;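 note: antibody binding to the cells detected with a fluorescently labelled secondary antibody and read out as median fluorescence intensity by flow cytometry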
T1 construct: the cell line is named under assay; also called human Claudine18.2; hClaudin18.2
Description: (§1) The specificity and cross-reactivity of these subclones were confirmed with FACs analysis. […] Fluorescent dye-conjugated secondary antibody was used to detect the binding of the primary antibody with the cells. Median fluorescence intensity (MFI) was measured by FACs analysis.

[2] = molecular target: T2, human Claudin18.1 (CLDN18.1) (human, UniProt P56856 1-261); experiment: FACS on CHOK1-18.1 cells;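 for FACS MFI: test antibody binding to the cells detected by flow cytometry using a fluorescent dye-labelled secondary antibody, read out as median fluorescence intensity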;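 for result: antibody binding to cells detected with a fluorescently labelled secondary antibody, read out as median fluorescence intensity (MFI) by flow cytometry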
T2 construct: whole, on cells; also called human Claudine18.1
Description: as §1

[3] = molecular target: T2, human Claudin18.1 (CLDN18.1); experiment: FACS on CHOK1-18.1 cells; remark: listed apart in the source;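 for FACS MFI: test antibody binding to the cells detected by flow cytometry using a fluorescent dye-labelled secondary antibody, read out as median fluorescence intensity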;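 for result: antibody binding to cells detected with a fluorescently labelled secondary antibody, read out as median fluorescence intensity (MFI) by flow cytometry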
Description: as §1

Binder | FACS MFI [1] | binding result [2] | FACS MFI [3]
Ab21 (antibody, V domains shown, mouse monoclonal (hybridoma)) VH: EVMLVESGGGLVKPGGSLKLSCAASGFTFSSYTMSWVRQTPEKRLEWVATIIGGYGNTYYVDSVKGRFTISRDSAKNTLYLQMISLRSEDTALYYCTRLGQTQRNAMDYWGQGTSVTVSS VL: DILMTQSPSSLSVSAGEKVTMSCKSSQSLLNSGNQKNYLAWYQQKPGQPPKLLIYGASTRESGVPDRFTGSGSGTDFTLTISSVQAEDLAVYYCQNDYYYPFTFGAGTKLEL | 10100 | no binding | 79.4
Ab20 (antibody, V domains shown, mouse monoclonal (hybridoma)) VH: EVMLVESGGGLVKPGGSLKLSCVASGFTFSSYTMSWVRQTPEKRLEWVATIIGGYGNTYYSDSVKGRITISRDSAKNTLYLQMISLRSEDTALYYCTRLGQTQRNAMDYWGQGTSVTVSS VL: DILMTQSPSSLSVSAGEKVTMNCKSSQSLLNSGNQKNYLAWYQQKPGQPPKLLIYGASTRESGVPDRFTGSGSGTDFTLTISSVQAEDLAVYYCQNDYYYPFTFGAGTKLEL | 7580 | no binding | 82.3
Ab22 (antibody, V domains shown, mouse monoclonal (hybridoma)) VH: EVMLVESGGGLVKPGGSLKLSCAASGFTFSSYTMSWVRQTPEKRLEWVATIIGGYGNTYYADSVKGRFTISRDSAKNTLYLQMISLRSEDTALYYCTRLGQTQRNAMDYWGQGTSVTVSS VL: DILMTQSPSSLSVSAGEKVTMSCKSSQSLLNSGNQKNYLAWYQQKPGQPPKLLIYGASTRESGVPDTFTGSGSGTDFTLTISSVQAEDLAVYYCQNDYYYPFTFGAGTKLEL | 9020 | no binding | 82.3
Ab23 (antibody, V domains shown, mouse monoclonal (hybridoma)) VH: EVMLVESGGGLVKPGGSLKLSCVASGFTFSSYTMSWVRQTPEKRLEWVATLSVVGGNTYYVDSVKGRFTISRDKAKNTLYLQMSSLRSEDTALYYCARLGQTQRNAMDYWGQGTSVTVSS VL: DIVMTQSPSSLSVSAGEKVTMSCKSSQSLLNSGNQKNYLAWYQQKPGQPPKLLIYGASTRESGVPDRFTGSGSGTDFTLTISSVQAEDLAVYYCQNDYSYPLTFGAGTKLEL | 8600 | no binding | 82.3
Ab01 (antibody, V domains shown, mouse monoclonal (hybridoma)) VH: DVQLQESGPGLVKPSQSLSLTCSVTGYSITSGYYWNWIRQFPGNKLEWMGYITYDGSNNYNPSLKNRISITRDTSKNQFFLKLNSVTTEDAATYFCARDPNYYGTTLPAWFVYWGQGTLVTVSA VL: DIVVTQSHKFMSTSVGDRVSITCKASQDVGTAVAWYQQKPGQSPKLLIYWASTRHTGVPDRFTGSGSGTDFTLTISNVQSEDLTDYFCQQYSSYVTFGAGTKLELK | 12300 |  | 7250
Ab03 (antibody, V domains shown, mouse monoclonal (hybridoma)) VH: EVQLQQSGPELVKPGASVKIACKASGYTFTDYNMDWVKQSHGKSLEWIGNINSYYGGTIYNQKFKGKATLTVDKSSSTAYMVLRSLTSEDNAVYYCARPHLGNALDYWGQGTSITVSS VL: DIVVTQSPSSLTVTPGEKVTMSCKSSQSLFNSGNQKNYLSWYQQNPGQPPKLLIYWASTRQSGVPDRFTGSGSGTDFTLTISSVQAEDLAGYYCQNDYIFPLTFGAGTKLELK | 1960 | no binding | 95.6
Ab26 (antibody, V domains shown, mouse monoclonal (hybridoma)) VH: EVMLVESGGGLVKPGGSLKLSCTASGFTFRSYTMSWVRQTPEKRLEWVATITGGGGNTYFLDSVKGRFTFSRDNAKNALYLQMNSLRSEDTALYYCARLGQTQRNAMDYWGQGTSVTVSS VL: DIVMTQSPSSLSVSAGEKVTMSCKSSQSLLNSGNQMNYLAWYQQKPGQPPKLLIYGASTRESGVPDRFTGSGSGTDFTLTISSVQAEDLAIYYCQNDHTYPLTFGAGTKLEL | 9730 | no binding | 80.8
Ab27 (antibody, V domains shown, mouse monoclonal (hybridoma)) VH: QVQLQQSGAELVRPGSSVKISCKASGYAFSNYWMNWVKQRPGQGLEWIGQIYPGNGDTNYNGKFKGKATLTADKSSTTAYIQLSSLTSEDSAVYFCTRIYYGNSFAYWGQGTLVTVS VL: DIVMTQSPSSLTVTAGERVTMSCKSSQSLLNSGNQKNYLTWYQQKPGQPPKLLIYWASTRESGVPDRFTGSGSGTDFTLTISRVQAQDLAVYYCQNDYYYPLTFGAGTKLELK | 7150 | no binding | 97
Ab28 (antibody, V domains shown, mouse monoclonal (hybridoma)) VH: QVQLKESGPGLVAPSQSLSITCTVSGFSLTSHGVHWVRQPPGKGLEWLGVIWAGGSINFNSALMSRLSISKDNSKNQVFLKMNSLQSDDTAMYYCARDYYYGIGLDYWGQGTTLTVS VL: DIVMTQSPSSLSVSAGEKVTMSCKSSQSLLNSGNQKNYLAWYQQKPGQPPKLLIYGASTRESGVPDRFTGSGSGTDFTLTISSVQAEDLAVYYCQNDYYYPFTFGSGTKLEIK | 8880 | no binding | 206
Ab29 (antibody, V domains shown, mouse monoclonal (hybridoma)) VH: EVLLQQSGPELVKPGASVKIPCKASGYTLTDHSMDWVKQSHGKSLEWIGNILPNNGGNIYNQKFRGKATLTVDKSSSTAYMELRSLTSEDTAVYNCARGHYGNSFAYWGQGTLVIVS VL: DIVMTQSPSSLTVRAGEKVTIYCKSSQSLFNSGNQKNYLTWYQQKPGQPPKLLIYWASTRESGVPHRFTGSGSGTDFTLTISSMQADDLATYYCQNGYFFPYTFGGGTKLEIK | 19100 | no binding | 97
Ab30 (antibody, V domains shown, mouse monoclonal (hybridoma)) VH: QVQLKESGPGLVAPSQSLSITCTVSGFSLTKFGVNWVRQPPGKGLEWLGAIWGDGSTNYHSALISRLSINKDNSKSQVFLKLSSLQNVDTATYYCAKSGYGNAMDYWGHGTSVTVSS VL: DIVMTQSPSSLTVTTGEKVTLNCKSSQSLLNSGNLKNYLTWYQQRPGQPPKLLIYWASTRESGVPYRFTGSGSGTDFTLTISNVQAEDLAIYYCQNDYFFPFTFGSGTKLEIK | 7560 | no binding | 98.5
Ab31 (antibody, V domains shown, mouse monoclonal (hybridoma)) VH: QIQLAQSGPELKKPGETVKISCKASGYSFTNYGMNWVKQAPGKGLKWMGWINTYSGETKYADDFKGRFDFSLETSARTAYLQIKNLKIEDTATYFCARRDAMDYWGQGTSVTVSS VL: DIVMTQAAPSVPVTPGESVSISCRSSKSLLNSNGNTYLYWFLQRPGQSPQLLIYRMSNLASGVPDRFSGSGSGTAFTLRISRVEAEDVGVYYCMQHLEFPFTFGSGTKLEIK | 5520 | no binding | 97
Ab32 (antibody, V domains shown, mouse monoclonal (hybridoma)) VH: QVQLKESGPGLVAPSQSLSITCTVSGFSLTSHGVHWVRQPPGKGLEWLGVIWAGGSINFNSALMSRLSISKDNSKNQVFLKMNSLQSDDTAMYYCARDYYYGIGLDYWGQGTTLTVS VL: DIVMTQSPSSLSVSAGEKVTMSCKSSQSLLNSGNQKNYLAWYQQKPGQPPKLLIYGASTRESGVPDRFTGSGSGTDFTLTISSVQAEDLAVYYCQNDYYYPFTFGSGTKLEIK | 8730 | no binding | 172
Ab33 (antibody, V domains shown, mouse monoclonal (hybridoma)) VH: DVNLVESGGGLVKPGGSLKLSCAASGFTFSSYTMSWVRQTPEKRLEWVATITYGRIYTYYLDSVKGRFTISRDNAKNTLYLQMSSLRSEDTAMYYCTRMITGNAMDSWGLGTSVTVSS VL: DIVMTQSPSSLTVTAGEKVTMSCKSSQSLLNSGNQKNYLTWYQQKPGQPPKLLIYWASTRESGVPDRFTGSGSGTDFTLTISGVQGEDLAVYYCQNDYSYPLTFGGGTKLELK | 8200 | no binding | 97
Ab04 (antibody, V domains shown, mouse monoclonal (hybridoma)) VH: EVQLQQSGPELVKPGASVKMSCMASGYTFTDYNIHWVKRSHGSRLEWIGYISPISGGAGYNQKFMDKATLTVDKSSNTAYMELRSLTSEDSAVYYCTRGDYWGQGTTLTVSS VL: DIVMTQSPSSLAVTVGEKVTMSCKSSQSLLNSGNQKNYLTWYQQKPGQPPKLLIYWASTRKSGVPDRFTGSGSGTDFTLTISSVQAEDLGIYYCLNDYGFPLTFGAGSKLELK | 17600 |  | 6920
Ab34 (antibody, V domains shown, mouse monoclonal (hybridoma)) VH: EVLLQQSGPELVKPGASVKIPCKASGYTFSDYNMDWVKQSHGKSLEWIGHINPNNDNTIYNQKFKGKATLTVDKSSNTAYMDLRSLSSEDTAVYYCARGAYYGNSMDYWGQGTSVTVSS VL: DIVMTQSPSSLTVTAGERVTMSCKSSQSLLNGGNQRNYLTWYQQKPGQSPKLLIYWASTWESGVPDRFTGSGSGTDFTLTISSVQAEDLAVYYCQNAYFYPYTFGGGTKLEIK | 9070 | no binding | 91.1
Ab36 (antibody, V domains shown, mouse monoclonal (hybridoma)) VH: EVKLEESGGGLVQPGGSMKLSCVASGFTFSNYWMNWVRQSPEKGLEWVAQIRLKSDNYATHYAESVKGMFTISRDDSKSSVYLQMNNLRAEDTGIYYCTAGGDYWGQGTTLTVSS VL: DIVMTQSQKFMSTTVGDRVSITCKASQNVGTAVAWYHQKPGQSPKLLIYSASNRYTGVPDRFIGSGSGTDFTLTISNVQSEDLGNYFCQQYINYLLTFGSGTKLEIK | 18000 |  | 
Ab37 (antibody, V domains shown, mouse monoclonal (hybridoma)) VH: EVKLEESGGGLVQPGGSMKLSCVASGFTFSNYWMNWVRQYPEQGLEWVAQIRLNSDNYATHYAESVKGRFTISRDDSRSTVYLQMNNLRAEDTGIYYCTGGGEYWGQGTTLTVSS VL: DIVMTQSQKFMSTTIGDRVSITCKASQNVDTAVAWYQQKPGQSPKLLIYSASTRYTGVPDRFTGSGSGTDFTLTISNMQSEDLADYFCQQYISYQLTFGAGTKLELK | 15200 |  | 4590
Ab38 (antibody, V domains shown, mouse monoclonal (hybridoma)) VH: QIQLVQSGPELKKPGETVKISCKASGYTFTNYGMSWVKQAPGKGLKWMGWINTYSGVPTYADDFKGRFVFSLEASASTAYLQINNLKNEDAATYFCSRWSGPDPLEDHWGQGTTLTVSS VL: QIVLTQSPAIMSASPGEKVTMTCTASLSLNYIHWYRQRSGTSPKRWIYDTSKLASGVPSRFSGSGSGTSYSLTISSMEAEDAATYYCQQWSSNPWTFGGGTKLEIK | 15700 |  | 
